Source: US11795460B2, “Compositions and methods for TTR gene editing and treating ATTR amyloidosis” (Intellia Therapeutics, Inc., priority 2017, dated 2023)
Strand notation (5' to 3'): a small letter for the sugar, then the base; units joined by * are phosphorothioate-linked, units joined directly phosphodiester-linked; [ ] holds rarer units or linkages, { } end groups; capitals alone tell only the bases. m = 2'-O-methyl; r = 2'-OH (RNA)

B1: G000480: TTR sgRNA modified sequence, Human, SEQ ID No. 87; guide sequence of CR003353 (nucleic acid)
guide: mA*mA*mA*rGrGrCrUrGrCrUrGrArUrGrArCrArCrCrUrGrUrUrUrUrArGrAmGmCmUmAmGmAmAmAmUmAmGmCrArArGrUrUrArArArArUrArArGrGrCrUrArGrUrCrCrGrUrUrArUrCrAmAmCmUmUmGmAmAmAmAmAmGmUmGmGmCmAmCmCmGmAmGmUmCmGmGmUmGmCmU*mU*mU*mU
B2: G000488: TTR sgRNA modified sequence, Human, SEQ ID No. 95; guide sequence of CR003346 (nucleic acid)
guide: mA*mA*mA*rGrUrUrCrUrArGrArUrGrCrUrGrUrCrCrGrGrUrUrUrUrArGrAmGmCmUmAmGmAmAmAmUmAmGmCrArArGrUrUrArArArArUrArArGrGrCrUrArGrUrCrCrGrUrUrArUrCrAmAmCmUmUmGmAmAmAmAmAmGmUmGmGmCmAmCmCmGmAmGmUmCmGmGmUmGmCmU*mU*mU*mU
B3: G000489: TTR sgRNA modified sequence, Human, SEQ ID No. 96; guide sequence of CR003344 (nucleic acid)
guide: mU*mU*mU*rGrArCrCrArUrCrArGrArGrGrArCrArCrUrGrUrUrUrUrArGrAmGmCmUmAmGmAmAmAmUmAmGmCrArArGrUrUrArArArArUrArArGrGrCrUrArGrUrCrCrGrUrUrArUrCrAmAmCmUmUmGmAmAmAmAmAmGmUmGmGmCmAmCmCmGmAmGmUmCmGmGmUmGmCmU*mU*mU*mU
B4: G000502: TTR Cyno specific sgRNA modified sequence, SEQ ID No. 114; guide sequence of CR000689; cross homologous between mouse and cyno (nucleic acid)
guide: mA*mC*mA*rCrArArArUrArCrCrArGrUrCrCrArGrCrGrGrUrUrUrUrArGrAmGmCmUmAmGmAmAmAmUmAmGmCrArArGrUrUrArArArArUrArArGrGrCrUrArGrUrCrCrGrUrUrArUrCrAmAmCmUmUmGmAmAmAmAmAmGmUmGmGmCmAmCmCmGmAmGmUmCmGmGmUmGmCmU*mU*mU*mU
B5: G000481: TTR sgRNA modified sequence, Human, SEQ ID No. 88; guide sequence of CR003345 (nucleic acid)
guide: mU*mC*mU*rArGrArArCrUrUrUrGrArCrCrArUrCrArGrGrUrUrUrUrArGrAmGmCmUmAmGmAmAmAmUmAmGmCrArArGrUrUrArArArArUrArArGrGrCrUrArGrUrCrCrGrUrUrArUrCrAmAmCmUmUmGmAmAmAmAmAmGmUmGmGmCmAmCmCmGmAmGmUmCmGmGmUmGmCmU*mU*mU*mU
B6: G000482: TTR sgRNA modified sequence, Human, SEQ ID No. 89; guide sequence of CR003365 (nucleic acid)
guide: mU*mG*mU*rArGrArArGrGrGrArUrArUrArCrArArArGrGrUrUrUrUrArGrAmGmCmUmAmGmAmAmAmUmAmGmCrArArGrUrUrArArArArUrArArGrGrCrUrArGrUrCrCrGrUrUrArUrCrAmAmCmUmUmGmAmAmAmAmAmGmUmGmGmCmAmCmCmGmAmGmUmCmGmGmUmGmCmU*mU*mU*mU
B7: G000486: TTR sgRNA modified sequence, Human, SEQ ID No. 93; guide sequence of CR003339 (nucleic acid)
guide: mA*mC*mA*rCrArArArUrArCrCrArGrUrCrCrArGrCrArGrUrUrUrUrArGrAmGmCmUmAmGmAmAmAmUmAmGmCrArArGrUrUrArArArArUrArArGrGrCrUrArGrUrCrCrGrUrUrArUrCrAmAmCmUmUmGmAmAmAmAmAmGmUmGmGmCmAmCmCmGmAmGmUmCmGmGmUmGmCmU*mU*mU*mU
B8: G000499: TTR sgRNA modified sequence, Human, SEQ ID No. 106; guide sequence of CR005303 (nucleic acid)
guide: mU*mG*mA*rArUrCrCrArArGrUrGrUrCrCrUrCrUrGrArGrUrUrUrUrArGrAmGmCmUmAmGmAmAmAmUmAmGmCrArArGrUrUrArArArArUrArArGrGrCrUrArGrUrCrCrGrUrUrArUrCrAmAmCmUmUmGmAmAmAmAmAmGmUmGmGmCmAmCmCmGmAmGmUmCmGmGmUmGmCmU*mU*mU*mU

system: human TTR; assay: Serum human TTR ELISA in humanized TTR mice (Table 26); assay type: in vivo, mouse; settings: 1, 0.3, 0.1, or 0.03 mg/kg, Cas9 mRNA (SEQ ID NO: 1) 1:1 by weight to guide, FIG. 26B-C
Protocol: Blood was collected and the serum was isolated as indicated. The total mouse TTR serum levels were determined using a Mouse Prealbumin (Transthyretin) ELISA Kit (Aviva Systems Biology, Cat. OKIA00111); rat TTR serum levels were measured using a rat specific ELISA kit (Aviva Systems Biology catalog number OKIA00159); human TTR serum levels were measured using a human specific ELISA kit (Aviva Systems Biology catalog number OKIA00081); each according to manufacture's protocol. Briefly, sera were serial diluted with kit sample diluent to a final dilution of 10,000-fold, or 5,000-fold when measuring human TTR in mouse sera. 100 ul of the prepared standard curve or diluted serum samples were added to the ELISA plate, incubated for 30 minutes at room temperature then washed 3 times with provided wash buffer. 100 uL of detection antibody was then added to each well and incubated for 20 minutes at room temperature followed by 3 washes. 100 uL of substrate is added then incubated for 10 minutes at room temperature before the addition of 100 uL stop solution. The absorbance of the contents was measured on the Spectramax M5 plate reader with analysis using SoftmaxPro version 7.0 software. Serum TTR levels were quantitated off the standard curve using 4 parameter logistic fit and expressed as ug/mL of serum or percent knockdown relative control (vehicle treated) animals.
The level of human TTR in serum was measured in the mice provided formulation numbers 6-8, 10-13, and 15-16. FIG. 14A is a repeat of FIG. 13 provided for comparison purposes. Knockdown of serum human TTR was detected for each formulation tested, which correlated with the amount of editing detected in liver (See FIG. 14A vs 14B, Table 26).
In another set of experiments, humanized TTR mice were dosed with LNP formulations across a range of doses with guides G000480, G000488, G000489 and G000502. The formulations contained Cas9 mRNA (SEQ ID NO: 1) in a 1:1 ratio by weight to the guide. The LNPs contained Lipid A, Cholesterol, DSPC, and PEG2k-DMG in a 50:38:9:3 molar ratio, respectively, and having a N:P ratio of 6. Dosing was at 1, 0.3, 0.1, or 0.03 mg/kg (n=5/group). The LNPs were prepared using the cross-flow procedure described above and purified and concentrated using PD-10 columns and Amicon centrifugal filter units, respectively. Liver editing results were determined using primers designed to amplify the region of interest for NGS analysis and serum human TTR levels were measured as described above. Results for liver editing are shown in FIG. 26A and serum human TTR levels in FIG. 26B-C.
(§1) In another set of experiments, humanized TTR mice were dosed with LNP formulations across a range of doses with guides G000481, G000482, G000486 and G000499. The formulations contained Cas9 mRNA (SEQ ID NO: 1) in a 1:1 ratio by weight to the guide. […] Dosing was at 1, 0.3, or 0.1 mg/kg (n=5/group). The LNPs were prepared using the cross-flow procedure described above and purified and concentrated using PD-10 columns and Amicon centrifugal filter units, respectively. Liver editing results were determined using primers designed to amplify the region of interest for NGS analysis and serum human TTR levels were measured as described above. Results for liver editing are shown in FIG. 27A and serum human TTR levels in FIG. 27B-C.
as §1, with “guides G000480,” for “guides”, “G000486, G000499” for “G000482, G000486”, “G000502.” for “G000499.”, “1:2” for “1:1”, “Results for liver editing are shown in FIG. 27A and serum human TTR levels in FIG. 27B-C.” left out

| Molecule | Serum human TTR levels, dose response |
| --- | --- |
| B1 | A dose response for both editing and serum TTR levels was evident |
| B2 | A dose response for both editing and serum TTR levels was evident |
| B3 | A dose response for both editing and serum TTR levels was evident |
| B4 | A dose response for both editing and serum TTR levels was evident |

same assay, conditions: 1, 0.3, or 0.1 mg/kg, Cas9 mRNA (SEQ ID NO: 1) 1:1 by weight to guide, FIG. 27B-C

| Molecule | Serum human TTR levels, dose response |
| --- | --- |
| B5 | A dose response for both editing and serum TTR levels was evident |
| B6 | A dose response for both editing and serum TTR levels was evident |
| B7 | A dose response for both editing and serum TTR levels was evident |
| B8 | A dose response for both editing and serum TTR levels was evident |

same assay, conditions: 1, 0.3, or 0.1 mg/kg, Cas9 mRNA (SEQ ID NO: 1) 1:2 by weight to guide, FIG. 28B-C

| Molecule | Serum human TTR levels, dose response |
| --- | --- |
| B5 | A dose response for both editing and serum TTR levels was evident |
| B7 | A dose response for both editing and serum TTR levels was evident |
| B1 | A dose response for both editing and serum TTR levels was evident |
| B4 | A dose response for both editing and serum TTR levels was evident |
| B8 | A dose response for both editing and serum TTR levels was evident |

same assay, conditions: Table 26, serum human TTR, LNP Formulation Numbers 6-16, 1 mg/kg (total RNA content)

| Molecule | Serum TTR(% TSS) |
| --- | --- |
| B5 | 10.52 |
| B8 | 8.39 |
